Positions count from the first letter of the chain named. In names and notes the source's numbering stands. Like-named read-outs stand apart in the source and are kept apart here. Blank lines part the entries; values can stand above or below the binder they belong to.
Tests used:
CTLA-4 [1] = molecular target: T1, CTLA-4 (UniProt P16410 36-162, limits assumed); assay: ELISA, OD mutant/OD WT; B=70-90%
[2] = molecular target: T2, human CTLA-4 Fc fusion protein (R&D systems) (human, UniProt P16410 37-162); assay: ELISA, fold change of EC50; S47 on the Cys
T2 construct: bought

[3] = molecular target: T2, human CTLA-4 Fc fusion protein (R&D …); assay: receptor blocking ELISA against biotinylated B7-1 or B7-2; TMEAbody (S47 conjugate)
CTLA-4 [4] = molecular target: T3, CTLA-4 (UniProt P16410 36-162, limits assumed); assay: ELISA; R4-1 on the Cys
T3 construct: also called CTLA-4 protein

CTLA-4 [5] = molecular target: T3, CTLA-4; assay: ELISA; R4-1 on the Cys; remark: listed apart in the source
CTLA-4 [6] = molecular target: T3, CTLA-4; assay: ELISA; S47 on the Cys
CTLA-4 [7] = molecular target: T1, CTLA-4; assay: ELISA, conjugate vs WT antibody
CTLA-4 [8] = molecular target: T1, CTLA-4; assay: ELISA, OD mutant/OD WT; ↓=less than 70%
CTLA-4 [9] = molecular target: T1, CTLA-4; assay: ELISA, OD mutant/OD WT; B=70-90%; remark: listed apart in the source
PD-1 [10] = molecular target: T4, PD-1 (UniProt Q15116 25-167, limits assumed); assay: ELISA, conjugate vs WT antibody
PD-1 [11] = molecular target: T4, PD-1; assay: ELISA, conjugate vs WT antibody; remark: listed apart in the source
[12] = molecular target: T5, human Fc tagged PD-1 protein (Sino Biological) (human, UniProt Q15116 25-167); assay: ELISA, EC50 fold change; S47 on the Cys
T5 construct: bought; also called Fc tagged human PD-1 protein

CD28 = CD28 (UniProt P10747 19-152, limits assumed); assay: ELISA, conjugate vs WT antibody

T4 sequence (Q15116 25-167 limits assumed): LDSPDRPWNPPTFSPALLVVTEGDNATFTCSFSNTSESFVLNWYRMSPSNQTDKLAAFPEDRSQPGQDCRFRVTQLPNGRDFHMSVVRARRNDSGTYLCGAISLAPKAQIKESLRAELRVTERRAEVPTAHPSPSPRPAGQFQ
T2 sequence (P16410 37-162 limits assumed): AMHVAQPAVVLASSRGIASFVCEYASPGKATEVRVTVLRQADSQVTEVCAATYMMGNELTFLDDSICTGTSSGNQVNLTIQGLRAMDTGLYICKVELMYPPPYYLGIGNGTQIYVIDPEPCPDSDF
T5 sequence (Q15116 25-167 limits assumed): as the sequence (Q15116 25-167 limits assumed) above

binding activity (OD after mutation/OD wild type) (CTLA-4 [1]): 70 to 90%
B3: anti-CTLA-4 antibody heavy chain Y107C (antibody, human IgG1, kappa, V domains shown)
VH: QVQLVESGGGVVQPGRSLRLSCAASGFTFSSYTMHWVRQAPGKGLEWVTFISYDGNNKYYADSVKGRFTISRDNSKNTLYLQMNSLRAEDTAIYYCARTGWLGPFDCWGQGTLVTVSS
VL: not shown

binding activity vs wild type (CTLA-4 [8]): < 70%
B6: anti-CTLA-4 antibody light chain A52C (antibody, human IgG1, kappa, V domains shown)
VH: B3 VH with C107Y
VL: not shown

binding activity (OD after mutation/OD wild type) (CTLA-4 [9]): 70 to 90%
B7: anti-CTLA-4 antibody light chain L34C (antibody, human IgG1, kappa, V domains shown)
VH: B3 VH with C107Y
VL: not shown

binding activity (OD after mutation/OD wild type) (CTLA-4 [9]): 70 to 90%
B10: anti-CTLA-4 antibody light chain T98C (antibody, human IgG1, kappa, V domains shown)
VH: B3 VH with C107Y
VL: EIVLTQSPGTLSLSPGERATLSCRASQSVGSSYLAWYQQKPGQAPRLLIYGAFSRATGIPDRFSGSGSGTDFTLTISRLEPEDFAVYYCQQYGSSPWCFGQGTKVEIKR

binding activity vs wild type (CTLA-4 [8]): < 70%
B12: anti-CTLA-4 antibody light chain Y92C (antibody, human IgG1, kappa, V domains shown)
VH: B3 VH with C107Y
VL: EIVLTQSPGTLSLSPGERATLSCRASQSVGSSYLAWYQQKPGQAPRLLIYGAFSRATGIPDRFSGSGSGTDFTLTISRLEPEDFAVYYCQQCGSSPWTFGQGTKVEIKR

binding activity (OD after mutation/OD wild type) (CTLA-4 [9]): 70 to 90%
B16: anti-CTLA-4 antibody light chain A56C (antibody, human IgG1, kappa, V domains shown)
VH: B3 VH with C107Y
VL: not shown

binding activity vs wild type (CTLA-4 [8]): < 70%
B17: anti-CTLA-4 antibody light chain Y33C (antibody, human IgG1, kappa, V domains shown)
VH: B3 VH with C107Y
VL: not shown

binding activity (OD after mutation/OD wild type) (CTLA-4 [9]): 70 to 90%
B18: anti-CTLA-4 antibody light chain A35C (antibody, human IgG1, kappa, V domains shown)
VH: B3 VH with C107Y
VL: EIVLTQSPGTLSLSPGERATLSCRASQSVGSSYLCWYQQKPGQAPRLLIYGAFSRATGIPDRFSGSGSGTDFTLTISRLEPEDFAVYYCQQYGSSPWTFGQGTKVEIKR

binding activity (% of WT) (PD-1 [10]): 95.2%
B20: anti-PD-1 antibody 1 heavy chain K63C-R4-7 (antibody, human IgG4 S228P, kappa, V domains shown)
VH: QVQLVQSGVEVKKPGASVKVSCKASGYTFTNYYMYWVRQAPGQGLEWMGGINPSNGGTNFNECFKNRVTLTTDSSTTTAYMELKSLQFDDTAVYYCARRDYRFDMGFDYWGQGTTVTVSS
VL: EIVLTQSPATLSLSPGERATLSCRASKGVSTSGYSYLHWYQQKPGQAPRLLIYLASYLESGVPARFSGSGSGTDFTLTISSLEPEDFAVYYCQHSRDLPLTFGGGTKVEIKR
modifications: R4-7 on Cys 63

binding activity (% of WT) (PD-1 [11]): 108%
B21: anti-PD-1 antibody 1 light chain G28C-R4-5 (antibody, human IgG4 S228P, kappa, V domains shown)
VH: B20 VH with C63K
VL: B20 VL with G28C
modifications: R4-5 on Cys 28

binding activity (% of WT) (PD-1 [11]): 86.9%
B23: anti-PD-1 antibody 1 light chain S30C-R4-1 (antibody, human IgG4 S228P, kappa, V domains shown)
VH: B20 VH with C63K
VL: B20 VL with S30C
modifications: R4-1 on Cys 30

binding activity (% of WT) (PD-1 [10]): 104%
B24: anti-PD-1 antibody 1 heavy chain S54C-R4-1 (antibody, human IgG4 S228P, kappa, V domains shown)
VH: B20 VH with S54C, C63K
VL: B20 VL
modifications: R4-1 on Cys 54

binding activity (% of WT) (PD-1 [11]): 88.3%
B25: anti-PD-1 antibody 1 light chain S35C-R4-1 (antibody, human IgG4 S228P, kappa, V domains shown)
VH: B20 VH with C63K
VL: B20 VL with S35C
modifications: R4-1 on Cys 35

binding activity (% of WT) (PD-1 [11]): 89.4%
B26: anti-PD-1 antibody 1 light chain S60C-R4-1 (antibody, human IgG4 S228P, kappa, V domains shown)
VH: B20 VH with C63K
VL: B20 VL with S60C
modifications: R4-1 on Cys 60

binding activity (% of WT) (PD-1 [10]): 91.2%
B27: anti-PD-1 antibody 1 heavy chain T30C-R4-1 (antibody, human IgG4 S228P, kappa, V domains shown)
VH: B20 VH with T30C, C63K
VL: B20 VL
modifications: R4-1 on Cys 30

binding activity (% of WT) (PD-1 [11]): 84.4%
B28: anti-PD-1 antibody 1 light chain T31C-R4-1 (antibody, human IgG4 S228P, kappa, V domains shown)
VH: B20 VH with C63K
VL: B20 VL with T31C
modifications: R4-1 on Cys 31

binding activity (% of WT) (PD-1 [10]): 93.9%
B29: anti-PD-1 antibody 1 heavy chain T58C-R4-1 (antibody, human IgG4 S228P, kappa, V domains shown)
VH: B20 VH with T58C, C63K
VL: B20 VL
modifications: R4-1 on Cys 58

Second part, the binder before the results:

B1: anti-CTLA-4 antibody heavy chain D54C (antibody, human IgG1, kappa, V domains shown)
VH: B3 VH with D54C, C107Y
VL: not shown
binding activity (OD after mutation/OD wild type) (CTLA-4 [1]): 70 to 90%

B2: Ipi-se009 (Ipilimumab light chain Ser54Cys, Kabat L53) (antibody, human IgG1, kappa, V domains shown)
VH: B3 VH with C107Y
VL: not shown
modifications: Cys at 54 (Kabat L53) carries the group named in the row
Blocking efficiency after conjugation with S47 [2]: 22 fold
Blocking efficiency (RBA), fold change of IC50 [3]: 18 fold
Binding activity (CTLA-4 [4]): 98%
Binding activity (CTLA-4 [5]): 98%
Activity after S47 (40 kD) blocking (CTLA-4 [6]): 5%

B4: anti-CTLA-4 antibody heavy chain Y59C-R4-4 (antibody, human IgG1, kappa, V domains shown)
VH: B3 VH with Y59C, C107Y
VL: not shown
modifications: R4-4 on Cys 59
binding activity (% of WT) (CTLA-4 [7]): 89.1%

B5: anti-CTLA-4 antibody heavy chain S30C-R4-1 (antibody, human IgG1, kappa, V domains shown)
VH: B3 VH with S30C, C107Y
VL: not shown
modifications: R4-1 on Cys 30
binding activity (% of WT) (CTLA-4 [7]): 93.4%

B8: anti-CTLA-4 antibody heavy chain D106C-R4-3 (antibody, human IgG1, kappa, V domains shown)
VH: B3 VH with D106C, C107Y
VL: not shown
modifications: R4-3 on Cys 106
binding activity (% of WT) (CTLA-4 [7]): 87.6%

B9: anti-CTLA-4 antibody heavy chain D62C (antibody, human IgG1, kappa, V domains shown)
VH: B3 VH with D62C, C107Y
VL: not shown
binding activity (OD after mutation/OD wild type) (CTLA-4 [1]): 70 to 90%

B11: anti-CTLA-4 antibody heavy chain K65C-R4-7 (antibody, human IgG1, kappa, V domains shown)
VH: B3 VH with K65C, C107Y
VL: not shown
modifications: R4-7 on Cys 65
binding activity (% of WT) (CTLA-4 [7]): 96.2%

B13: anti-CTLA-4 antibody heavy chain I51C (antibody, human IgG1, kappa, V domains shown)
VH: B3 VH with I51C, C107Y
VL: not shown
binding activity (OD after mutation/OD wild type) (CTLA-4 [1]): 70 to 90%

B14: anti-CTLA-4 antibody heavy chain Y32C (antibody, human IgG1, kappa, V domains shown)
VH: B3 VH with Y32C, C107Y
VL: not shown
binding activity (OD after mutation/OD wild type) (CTLA-4 [1]): 70 to 90%

B15: anti-CTLA-4 antibody heavy chain K58C-R4-7 (antibody, human IgG1, kappa, V domains shown)
VH: B3 VH with K58C, C107Y
VL: not shown
modifications: R4-7 on Cys 58
binding activity (% of WT) (CTLA-4 [7]): 87.6%

B19: anti-CTLA-4 antibody heavy chain S31C-R4-1 (antibody, human IgG1, kappa, V domains shown)
VH: B3 VH with S31C, C107Y
VL: not shown
modifications: R4-1 on Cys 31
binding activity (% of WT) (CTLA-4 [7]): 110%

B22: Pem-se007 (Pembrolizumab light chain Gly28Cys) (antibody, human IgG4 S228P, kappa, V domains shown)
VH: B20 VH with C63K
VL: B20 VL with G28C
modifications: Cys at 28 carries the group named in the row
Blocking efficiency of S47 [12]: 8 fold

B30: anti-CD28 antibody light chain G99C-R4-1 (antibody, human IgG4, kappa, V domains shown)
VH: QVQLVQSGAEVKKPGASVKVSCKASGYTFTSYYIHWVRQAPGQGLEWIGCIYPGNVNTNYNEKFKDRATLTVDTSISTAYMELSRLRSDDTAVYFCTRSHYGLDWNFDVWGQGTTVTVSS
VL: not shown
modifications: R4-1 on Cys 99
binding activity (% of WT) (CD28): 96.6%

B31: anti-CD28 antibody light chain T93C-R4-1 (antibody, human IgG4, kappa, V domains shown)
VH: B30 VH
VL: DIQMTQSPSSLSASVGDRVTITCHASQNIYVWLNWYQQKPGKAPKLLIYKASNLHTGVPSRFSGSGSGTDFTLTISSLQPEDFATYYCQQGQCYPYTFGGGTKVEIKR
modifications: R4-1 on Cys 93
binding activity (% of WT) (CD28): 87%

Reference: patent US20230158141A1 (YAFEI SHANGHAI BIOLOG MEDICINE SCIENCE AND TECHNOLOGY, published 2023)
